Laboratory results from US20240287138A1 (Merck Sharp & Dohme, published 2024).
Numbered stars: 1 amine (or outer) side, 2 acyl side, 3 side chain; on linkers, the order of the positions; unused ones are H or OH. Bridge positions count the residues as written; N and C are the ends. Square brackets hold non-standard residues; d marks the D form. Primed or numbered codes have the meaning given here. 4Pal2F = (S)-2-Amino-3-(3-fluoropyridin-4-yl)propanoic acid, O=C([C@H](Cc1ccncc1F)N[*:1])[*:2]; bhcLeu = (1R,3S)-3-aminocyclopentane-1-carboxylic acid, O=C([C@@H]1CC[C@H](N[*:1])C1)[*:2]; AhpF3 = (S)-2-Amino-7,7,7-trifluoroheptanoic acid, O=C([C@H](CCCCC(F)(F)F)N[*:1])[*:2]; Trp(1-CH2CO) = O=C([C@H](Cc1cn(CC(=O)[*:3])c2ccccc12)N[*:1])[*:2]; Ala(2-carboxypyrimidin-5-yl) = N[C@@H](Cc1cnc(C(=O)O)nc1)C(=O)O; Trp(βS-Me,7-OMe) = COc1cccc2c([C@H](C)[C@H](N)C(=O)O)c[nH]c12; Phe(3R-OH) = O=C([C@@H](N[*:1])[C@H](O[*:3])c1ccccc1)[*:2]; Ala(1-bicyclo(1.1.1)pentyl) = N[C@@H](CC12CC(C1)C2)C(=O)O; NEtdA = N-ethyl-D-alanine, CCN([C@H](C)C(=O)[*:2])[*:1]; Phe(4-SO3H) = N[C@@H](Cc1ccc(S(=O)(=O)O)cc1)C(=O)O; Trp(7-Cl) = N[C@@H](Cc1c[nH]c2c(Cl)cccc12)C(=O)O; Phe(4-CONH2) = NC(=O)c1ccc(C[C@H](N)C(=O)O)cc1; Phe(4-COOH) = N[C@@H](Cc1ccc(C(=O)O)cc1)C(=O)O; Trp(7-aza) = N[C@@H](Cc1c[nH]c2ncccc12)C(=O)O; Pip(5R-OH) = O=C(O)[C@@H]1CC[C@@H](O)CN1; Val(3-OH) = CC(C)(O)[C@H](N)C(=O)O; Pip(4-aza) = O=C(O)[C@@H]1CNCCN1; 4Pal = N[C@@H](Cc1ccncc1)C(=O)O; NMeE = CN[C@@H](CCC(=O)O)C(=O)O; dHyp = O=C(O)[C@H]1C[C@H](O)CN1; Morpip6diMe = not defined here; dbhcLeu = not defined here; αMeS = C[C@](N)(CO)C(=O)O; Nle = CCCC[C@H](N)C(=O)O; Pip′ = not defined here; Sar = CNCC(=O)O

T1: TNFR1 on THP-1 Lucia NF-κB cells (UniProt P19438 30-455, limits assumed)
T1 sequence (looked up): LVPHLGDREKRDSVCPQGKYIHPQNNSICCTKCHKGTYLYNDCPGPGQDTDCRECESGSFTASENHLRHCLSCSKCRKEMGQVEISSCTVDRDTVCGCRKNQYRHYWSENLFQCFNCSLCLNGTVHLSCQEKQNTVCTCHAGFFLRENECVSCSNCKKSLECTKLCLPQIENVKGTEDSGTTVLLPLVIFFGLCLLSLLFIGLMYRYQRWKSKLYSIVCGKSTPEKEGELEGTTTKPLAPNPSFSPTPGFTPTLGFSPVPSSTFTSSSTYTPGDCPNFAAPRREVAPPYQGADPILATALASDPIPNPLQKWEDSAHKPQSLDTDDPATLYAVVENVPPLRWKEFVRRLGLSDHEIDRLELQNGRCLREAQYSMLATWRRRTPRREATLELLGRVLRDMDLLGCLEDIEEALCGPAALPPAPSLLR

B1: SEQ ID NO. 186 (peptide)
peptide: {CH2CO}-[Nle][4Pal][Pip(5R-OH)]W[NEtdA]N[4Pal][Trp(7-Cl)][αMeS][Phe(4-CONH2)]Y[Sar][Trp(βS-Me,7-OMe)]C-NH2
modifications: thioether N-14
SMILES: CCCC[C@@H]1NC(=O)CSC[C@@H](C(N)=O)NC(=O)[C@H]([C@@H](C)c2c[nH]c3c(OC)cccc23)NC(=O)CN(C)C(=O)[C@H](Cc2ccc(O)cc2)NC(=O)[C@H](Cc2ccc(C(N)=O)cc2)NC(=O)[C@](C)(CO)NC(=O)[C@H](Cc2c[nH]c3c(Cl)cccc23)NC(=O)[C@H](Cc2ccncc2)NC(=O)[C@H](CC(N)=O)NC(=O)[C@@H](C)N(CC)C(=O)[C@H](Cc2c[nH]c3ccccc23)NC(=O)[C@@H]2CC[C@@H](O)CN2C(=O)[C@H](Cc2ccncc2)NC1=O
B2: SEQ ID NO. 217 (peptide)
peptide: {CH2CO}-[Nle]H[Val(3-OH)][Trp(7-aza)][NMeE]N[4Pal][Trp(7-Cl)][αMeS][Phe(4-COOH)]Y[Sar][Trp(βS-Me,7-OMe)]C-NH2
modifications: thioether N-14
SMILES: CCCC[C@@H]1NC(=O)CSC[C@@H](C(N)=O)NC(=O)[C@H]([C@@H](C)c2c[nH]c3c(OC)cccc23)NC(=O)CN(C)C(=O)[C@H](Cc2ccc(O)cc2)NC(=O)[C@H](Cc2ccc(C(=O)O)cc2)NC(=O)[C@](C)(CO)NC(=O)[C@H](Cc2c[nH]c3c(Cl)cccc23)NC(=O)[C@H](Cc2ccncc2)NC(=O)[C@H](CC(N)=O)NC(=O)[C@H](CCC(=O)O)N(C)C(=O)[C@H](Cc2c[nH]c3ncccc23)NC(=O)[C@H](C(C)(C)O)NC(=O)[C@H](Cc2c[nH]cn2)NC1=O
B3: SEQ ID NO. 214 (peptide)
peptide: cyclo([dbhcLeu][Nle][4Pal][Morpip6diMe]W[NMeE]N[4Pal][Trp(7-Cl)][αMeS][Phe(4-CONH2)]Y[Sar][Trp(βS-Me,7-OMe)])
modifications: reading uncertain; also: printed as cyclo(dbhcLeu-Nle-4Pal-Morpip6diMe-W-NMeE-N-4Pal-Trp7Cl-aMeS-Phe4CONH2-Y-Sar-SbMeW7OMe)
B4: SEQ ID NO. 197 (peptide)
peptide: cyclo([bhcLeu][Nle][4Pal][Pip(4-aza)][Trp(1-CH2CO)][NMeE]N[4Pal][Trp(7-Cl)][αMeS][Phe(4-COOH)]Y[Sar][Trp(βS-Me,7-OMe)])
SMILES: CCCC[C@@H]1NC(=O)[C@@H]2CC[C@@H](C2)NC(=O)[C@H]([C@@H](C)c2c[nH]c3c(OC)cccc23)NC(=O)CN(C)C(=O)[C@H](Cc2ccc(O)cc2)NC(=O)[C@H](Cc2ccc(C(=O)O)cc2)NC(=O)[C@](C)(CO)NC(=O)[C@H](Cc2c[nH]c3c(Cl)cccc23)NC(=O)[C@H](Cc2ccncc2)NC(=O)[C@H](CC(N)=O)NC(=O)[C@H](CCC(=O)O)N(C)C(=O)[C@H](Cc2cn(CC(=O)O)c3ccccc23)NC(=O)[C@@H]2CNCCN2C(=O)[C@H](Cc2ccncc2)NC1=O
B5: SEQ ID NO. 211 (peptide)
peptide: {CH2CO}-[Nle][4Pal][Phe(3R-OH)][Trp(7-aza)][NMeE]N[4Pal][Trp(7-Cl)][αMeS][Phe(4-COOH)]Y[Sar][Trp(βS-Me,7-OMe)]C-NH2
modifications: thioether N-14
SMILES: CCCC[C@@H]1NC(=O)CSC[C@@H](C(N)=O)NC(=O)[C@H]([C@@H](C)c2c[nH]c3c(OC)cccc23)NC(=O)CN(C)C(=O)[C@H](Cc2ccc(O)cc2)NC(=O)[C@H](Cc2ccc(C(=O)O)cc2)NC(=O)[C@](C)(CO)NC(=O)[C@H](Cc2c[nH]c3c(Cl)cccc23)NC(=O)[C@H](Cc2ccncc2)NC(=O)[C@H](CC(N)=O)NC(=O)[C@H](CCC(=O)O)N(C)C(=O)[C@H](Cc2c[nH]c3ncccc23)NC(=O)[C@H]([C@H](O)c2ccccc2)NC(=O)[C@H](Cc2ccncc2)NC1=O
B6: SEQ ID NO. 190 (peptide)
peptide: cyclo([bhcLeu][Ala(1-bicyclo(1.1.1)pentyl)][4Pal][Pip(4-aza)]W[NMeE]N[4Pal][Trp(7-Cl)][αMeS][Phe(4-COOH)]Y[Sar][Trp(βS-Me,7-OMe)])
SMILES: COc1cccc2c([C@H](C)[C@@H]3NC(=O)CN(C)C(=O)[C@H](Cc4ccc(O)cc4)NC(=O)[C@H](Cc4ccc(C(=O)O)cc4)NC(=O)[C@](C)(CO)NC(=O)[C@H](Cc4c[nH]c5c(Cl)cccc45)NC(=O)[C@H](Cc4ccncc4)NC(=O)[C@H](CC(N)=O)NC(=O)[C@H](CCC(=O)O)N(C)C(=O)[C@H](Cc4c[nH]c5ccccc45)NC(=O)[C@@H]4CNCCN4C(=O)[C@H](Cc4ccncc4)NC(=O)[C@H](CC45CC(C4)C5)NC(=O)[C@@H]4CC[C@@H](C4)NC3=O)c[nH]c12
B7: SEQ ID NO. 201 (peptide)
peptide: cyclo([bhcLeu][Nle][4Pal2F][Pip(4-aza)]W[NMeE]N[4Pal][Trp(7-Cl)][αMeS][Phe(4-COOH)]Y[Sar][Trp(βS-Me,7-OMe)])
SMILES: CCCC[C@@H]1NC(=O)[C@@H]2CC[C@@H](C2)NC(=O)[C@H]([C@@H](C)c2c[nH]c3c(OC)cccc23)NC(=O)CN(C)C(=O)[C@H](Cc2ccc(O)cc2)NC(=O)[C@H](Cc2ccc(C(=O)O)cc2)NC(=O)[C@](C)(CO)NC(=O)[C@H](Cc2c[nH]c3c(Cl)cccc23)NC(=O)[C@H](Cc2ccncc2)NC(=O)[C@H](CC(N)=O)NC(=O)[C@H](CCC(=O)O)N(C)C(=O)[C@H](Cc2c[nH]c3ccccc23)NC(=O)[C@@H]2CNCCN2C(=O)[C@H](Cc2ccncc2F)NC1=O
B8: SEQ ID NO. 199 (peptide)
peptide: cyclo([bhcLeu][Nle][4Pal][Pip(4-aza)]W[NMeE]N[4Pal][Trp(7-Cl)][αMeS][Phe(4-SO3H)]Y[Sar][Trp(βS-Me,7-OMe)])
SMILES: CCCC[C@@H]1NC(=O)[C@@H]2CC[C@@H](C2)NC(=O)[C@H]([C@@H](C)c2c[nH]c3c(OC)cccc23)NC(=O)CN(C)C(=O)[C@H](Cc2ccc(O)cc2)NC(=O)[C@H](Cc2ccc(S(=O)(=O)O)cc2)NC(=O)[C@](C)(CO)NC(=O)[C@H](Cc2c[nH]c3c(Cl)cccc23)NC(=O)[C@H](Cc2ccncc2)NC(=O)[C@H](CC(N)=O)NC(=O)[C@H](CCC(=O)O)N(C)C(=O)[C@H](Cc2c[nH]c3ccccc23)NC(=O)[C@@H]2CNCCN2C(=O)[C@H](Cc2ccncc2)NC1=O
B9: SEQ ID NO. 213 (peptide)
peptide: cyclo([bhcLeu][AhpF3][4Pal][Pip(4-aza)]W[NMeE]N[4Pal][Trp(7-Cl)][αMeS][Phe(4-COOH)]Y[Sar][Trp(βS-Me,7-OMe)])
SMILES: COc1cccc2c([C@H](C)[C@@H]3NC(=O)CN(C)C(=O)[C@H](Cc4ccc(O)cc4)NC(=O)[C@H](Cc4ccc(C(=O)O)cc4)NC(=O)[C@](C)(CO)NC(=O)[C@H](Cc4c[nH]c5c(Cl)cccc45)NC(=O)[C@H](Cc4ccncc4)NC(=O)[C@H](CC(N)=O)NC(=O)[C@H](CCC(=O)O)N(C)C(=O)[C@H](Cc4c[nH]c5ccccc45)NC(=O)[C@@H]4CNCCN4C(=O)[C@H](Cc4ccncc4)NC(=O)[C@H](CCCCC(F)(F)F)NC(=O)[C@@H]4CC[C@@H](C4)NC3=O)c[nH]c12
B10: SEQ ID NO. 191 (peptide)
peptide: cyclo([bhcLeu][Nle][4Pal][Pip(5R-OH)]W[dHyp]N[Phe(4-COOH)][Trp(7-Cl)][αMeS][Phe(4-CONH2)][Ala(2-carboxypyrimidin-5-yl)][Sar][Trp(βS-Me,7-OMe)])
SMILES: CCCC[C@@H]1NC(=O)[C@@H]2CC[C@@H](C2)NC(=O)[C@H]([C@@H](C)c2c[nH]c3c(OC)cccc23)NC(=O)CN(C)C(=O)[C@H](Cc2cnc(C(=O)O)nc2)NC(=O)[C@H](Cc2ccc(C(N)=O)cc2)NC(=O)[C@](C)(CO)NC(=O)[C@H](Cc2c[nH]c3c(Cl)cccc23)NC(=O)[C@H](Cc2ccc(C(=O)O)cc2)NC(=O)[C@H](CC(N)=O)NC(=O)[C@H]2C[C@H](O)CN2C(=O)[C@H](Cc2c[nH]c3ccccc23)NC(=O)[C@@H]2CC[C@@H](O)CN2C(=O)[C@H](Cc2ccncc2)NC1=O
B11: SEQ ID NO. 198 (peptide)
peptide: cyclo([bhcLeu][Nle][4Pal][Pip(4-aza)]W[NMeE]N[4Pal2F][Trp(7-Cl)][αMeS][Phe(4-COOH)]Y[Sar][Trp(βS-Me,7-OMe)])
SMILES: CCCC[C@@H]1NC(=O)[C@@H]2CC[C@@H](C2)NC(=O)[C@H]([C@@H](C)c2c[nH]c3c(OC)cccc23)NC(=O)CN(C)C(=O)[C@H](Cc2ccc(O)cc2)NC(=O)[C@H](Cc2ccc(C(=O)O)cc2)NC(=O)[C@](C)(CO)NC(=O)[C@H](Cc2c[nH]c3c(Cl)cccc23)NC(=O)[C@H](Cc2ccncc2F)NC(=O)[C@H](CC(N)=O)NC(=O)[C@H](CCC(=O)O)N(C)C(=O)[C@H](Cc2c[nH]c3ccccc23)NC(=O)[C@@H]2CNCCN2C(=O)[C@H](Cc2ccncc2)NC1=O

Molecular target: T1, TNFR1 on THP-1 Lucia NF-κB cells
Experiment: cell-based or functional assay

**Q.** How did the “THP-1 IC50” value turn out when B1 was run?
**A.** The value was 1.9 nM.

**Q.** Which “THP-1 IC50” value does the source give for B2 here?
**A.** Its value is 4.4 nM.

**Q.** Which “THP-1 IC50” value does the source give for B3 here?
**A.** Its value is 3.7 nM.

**Q.** With B4 as the binder, how does the “THP-1 IC50” value read?
**A.** The value was 0.7 nM.

**Q.** B5 was tested. Which “THP-1 IC50” value did it give?
**A.** Its value is 3.3 nM.

**Q.** How did the “THP-1 IC50” value turn out when B6 was run?
**A.** Its value is 1.6 nM.

**Q.** B7 was tested. Which “THP-1 IC50” value did it give?
**A.** The value was 0.9 nM.

**Q.** With {CH2CO}-[Nle][4Pal][Pip′]W[NMeE]N[4Pal][Trp(7-Cl)][αMeS][Phe(4-COOH)]Y[Sar][SbMeW7Me]C-NH2 (thioether N-14) [SEQ ID NO. 208] as the binder, how does the “THP-1 IC50” value read?
**A.** The value was 4 nM.

**Q.** How did the “THP-1 IC50” value turn out when B8 was run?
**A.** The value was 1 nM.

**Q.** How did the “THP-1 IC50” value turn out when B9 was run?
**A.** The value was 1 nM.

**Q.** Which “THP-1 IC50” value does the source give for B10 here?
**A.** The value was 1.6 nM.

**Q.** B11 was tested. Which “THP-1 IC50” value did it give?
**A.** The value was 0.8 nM.
